Experiment: yeast display, Sf9 membrane polyspecificity reagent, FACS + sequencing; frameworks hold sequencing errors
Procedure, shortened: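 Sorting gates, low and high (top ~1%), were placed on anti-HA fluorescence to track expression and on streptavidin fluorescence to track reagent binding. A clone's polyreactivity label is taken from the gate it came out of. The reagent was 10% biotinylated, detergent-solubilized Sf9 membrane, applied for 1 hour at 4 °C to galactose-induced yeast display cells.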

Sequence	polyreactivity (PSR sort gate)
QGQLEESGGGLVQAGGSLRLSCAASGSLFPSYVMGWYRQAPGKERELVAAIRTSGDRTYYADSVKGRFTNSRDNAKNTVYLQMNCLKPEDTAVYYCAAPYGHKSPRMYYWGQGTQVTVSS	high polyreactivity
QVQLVESGGVLVQAGGSLRLSCAASGSTLSPYVMGWYRQAPGKERELVATISRSGGRTYYADSVKGRFTISRDNAKNTVYLQMNSLKPEETAVYYCAARTYYWGALIVSYDYWGQGTQVTVSS	low polyreactivity
QVQLVESGGGLVQAGGSLRLSCAASGITFRWYAMGWYRPAPGKEWELVAAMNSRGTSTYYADSVKGRFTISRDNAKNTVYLQMNSLKPEDTSVYYCAATYLYIHGGFRPQYDYWGQGTQVTVSS	high polyreactivity
QVQLVESGGGLVQAGGSLRLSCAASGRTMYRNAMGWYRQAPGKERELVDDISRSGGSTFYADSVKGRFTISRDNAKNTVYLQMNSLKPEDTAVYYCNADYQEYVSGYDYWGQGTQVTVSS	high polyreactivity
LVQHVESGGGIVQAGGSLRLICAASGFPYNYYAMGWYRQAPGTEREFVAAISSGGGSTYYAYSVKGRFTISRDNAKNTVYLQMNSLKPEDTSGYYCAADRYSHYGYWGQATQVTVSS	low polyreactivity
QVQLVESGGGLVQAGGSLRLSSAASGRIFNPNGMGWYRQAPGKDRELVAVITRSGTSTYYADSVKGRFTISREYAKNTFYRQMYSLKPEDTAVYYCNAGKKYVDYGVLSSRYYWGQGTQVTVSS	low polyreactivity
QVQLVESGGGLVQAGGSLRLSCAASGSIFHPNAMGWYRQAPGKERELVAAITKSGGSTYYADSVKGRFTISRDNAKNTVYLQMNSLKPEDTAVYYCAKVSRATVTYDYWGQGTQVTVSS	high polyreactivity
QVQLVESGGGLVQAGGSLRLSCAASGFIFLAYAMGWYRQAPGKERELVAAISSGSSTSYADSVKGRFTISRDNAKNTVYLQMNSLKPEDTAVYYCNAVPSFANLTWESYDYWGQGTQVTVSS	low polyreactivity
QVQLVESGGGLVQAGGSLRLSCAASGRIFPYNAMGWYRQAPGKERELVAAINWSGGSTYYADSVKGRFTISRDNAKNTVYLQMNSLKPEDTAVYYCAAVYRYNSDPDYDYWGQGTQVTVSS	high polyreactivity
QVQLVESGGGLVQAGGSLRLSCAASGSTFLFYAMGWYRQAPGKERELVAAISSSGTSTYYADSVKGRFTISRDNAKNTVYLQMNSLKPEDTAVYYCAAVDPYERYVYWGQGTQVTVSS	low polyreactivity
QVQLVESGGGLVQAGGSLRLSCAASGIIFRFYAMGWSRQAPGKERELVATISKRGGTTYYADSVKGRFTISRDYAMNTVDLQMNSLKPEDSAVYYCAVRLYLEMDYWGQGTQVTVSS	high polyreactivity
QVQLVESGGGLVQAGGSLRLSCAASGSIFVGNAMGWYRQAPGKERELVAAITRSGGRTYYADSVKGRFTISRDNAKNTVYLQMNSLKPEDTAVYYCNAVYWTVYSREYDYWGQGTQVTVSS	high polyreactivity
QVQLQESSGGLVQAGVCLQQSCAASGSIFTQHPMGRYRQAPANEREFVAAINVGSNTYYADSVKGRITISRDNAKNTVSLQMNILTPEDTAVSYCAATSIRWSVGYFRRDYWGQGTQVTVSS	low polyreactivity
QVQRVESGGGLVQAGGSLRLSCAASGRTSYYNTMGWYRQAPGKEMELVAAITGRGDSTYYADSVKGRFTISRDNAKNTVYLQMNSLKPEDTAVYYCADDELHLLYRVSKFVDYNHWGQGTQVTVSS	low polyreactivity
QVQLVESGVGLVQAGGSLRLSCGASGSIFVANVMGWYRQAPGKEREFVATISWNGGNTYYADSVKGRFTISRDNAKNTVYLQMNSLKPEDTAVYYCAAEPLTPSRDRVPYEYYYWGQGTQVTVSS	high polyreactivity
QVQLVESGGGLVQAGGSLRLSCAASGSTFWTNAMGWNRQAPGKERELVATITYSTGTYADSVKGRFTISRDNAKNTVYLQMNSLKPEDTAVYYCAATGVPGWVGFDYWGQGTQVSVSS	low polyreactivity
QVQLVESGGGLVQAGGSLRLSCAASASIFYIYAKGSYRQAPGKARELVAVIRNGGRTNYADSVKGRFTISRDNAKNTVYFQMNSLKPEDTAVYYCAARPRHVTRFDYWGQGTQVTVSS	high polyreactivity
QVQLVESGGGLVQAGGSLRLSCAASGSNFYFYAMGWYRHAPGKERELVAGITSGGITYYADSVKGRFTISRDNAKNTVYLQLNSLKPEDTAVYYCAADFTRRWSKSTPFDSWGQGTQVTVSS	high polyreactivity
QVQLVESGGGLDQAGGSLRLSCAASGFIFAYYAMGWYRQAPGKERELVAAISSGGRTYYADSVKGRFTISRDNAKNTVYLQLNSLKPEDTAVYYCNKRFYPEHYYWGQGTQVTVSS	high polyreactivity
QVQLVESRGGLVQAGGSLLLSFAASGRTYPYNAMGWYIQAPRKERELVAGISSGGTTTYADSVKGRFTISRDNAKNTVYLQMNSLKPEDTAVYYCAATVIIFDHSLPGWDDYDYWGQGTQVTVSS	low polyreactivity
QVQLVESGGGLVQAGGSLRLSCSDSGSTFWLNAMGWYRQPPGKEREYVAAITWSSGSTYYADSVKGSFTISRDNAKNTVYLQMNSLKPEDTAVYYCNADYYFTSYEYEYWGQGTQVTVSS	low polyreactivity
QVQLVESGGGLVQAGGSLRLSCAASGSIIPLYAMGWYRQAPGKERELVAAISRRGGSTYYADSVKGRFTISRDNAKNTVYLQMNSLKPEDTAVYYCAVDTPSPSRGPRFNYWGQGTQVTVSS	high polyreactivity

Sequence	polyreactivity (PSR sort gate)
QVQLVESGGGLVQAGGSLRLSCAASGFIFRKNAMGWYRQAPGKERELVAANSQSGGSTYYADSVKGRFTISRDNAKNTVYLQMNSLKPEDTAVYYCAARYDLPNWVGGREYNYWGQGTQVTVSS	high polyreactivity
QVQLVESGGGLVQAGGSLRLSCAASGRIFASYAMGWYRQAPGKERELVAAISWSGGSTNYADSVKGRFTISRDNAKNTVYLQMNRLKPEDTAVYYCAKKKRRGYGYDYWGQGTQVTVSS	high polyreactivity
QVQLVESGGGLVQAGGSLRLSCAASGFIFRQYAMGWYRQAPGKERELVAAISTGGGRTYYADSVKGRFTISRDNAKNTVYLQMNSLKPEDTAVYYCAVYYYKTYDYWGQGTQVTVSS	high polyreactivity
QVQLVESGGGLVQEGGILRLSCAASGLTFYGYAMGWYRQAPGKERELVAAITSGDSTYYADSVKGRFTISRDNAKNTVYLQMNSLKPEDTAVYYCAAVGGYPRYGYWGQGTQVTVSS	high polyreactivity
QVPLVESGGGLVQAGGSLRLSCAASGRIFIQNTMGWDSQAPGKERELVAAINRSAGSTYYADSVKGRFTISRDNAKNTVYLQMNSLKTEDTAVYYCAAYASRRYGYWGQVTQVTVSS	high polyreactivity
QVQLEESGGGIVQAGGSLRLSCAASGRTFGANAMGWYRQAPGKERELVAAISSSDDSTYYADSVKGRFTISRDNAKNTVYLQMNSLKPEDTAVYYCAAEDVYPQLDYWGQGTQVTVSS	low polyreactivity
QVQLLESGGGLVQAGGSLRLSCAASGSIFANNAMGWYRQSPGKEREMVAAIDWSAASTYYADSVKGRFTISRDNAKNTVYLQMNSLKPEDTAVYYWNRRGSGGESYRTTTGALGYWGQGTQVTVSS	low polyreactivity
QVQLVESGRGLVQAGGSLRLSCAASGRTFYSNAMGWYRQAPGKERELVAGINWSGVSTYYADSVKGRFTISRDNAKNTVYLQMNSLKPEDTAVYYCAADTYAGYNGNYWGQGTQVTVSS	high polyreactivity
QVQHVESGGGLVQAGGSLRLSCAASGFTFAIYGKGWYRQAPGKERELVAAINWSGGRTYYADSVKGRFTISRDNAKNTVYVQMQSLKPDDTAVYYCAARYVSRWYDYEFWGQGTQVTVSS	high polyreactivity
QVQLVESGGGLVQAGGSLRLSCAASGIISYLYAMGWYRQAPGKERELVAVIRTSDAITYYADSVKGRFTISRDNAKNTVYLQMNSLKPEDTAVYYCNRDRGSIYGWGQGTQVTVSS	high polyreactivity
QVQLVESGGGLDQAGGSLRLSCAASGSIFGYAMGWYRQAPGKERELLAAITDSGGRTYYADSVKGRFTISRDNAKNTVYLQMNSLKPEDTAVYYCAKTWYPWSRYGYYRRYDSWGQGTQVNVSS	low polyreactivity
QVKLEESGGGLLQAGGSLRLSCAASGRIIGDYAMGSYRQAPGKERELVAANDRGGSTHYADSVKGRYTISRDNAKNTFYFQMNSLKPEDTAVYYCNLDVWANIKSRCIFAGWYDYWGQGTQVTVSS	low polyreactivity
QVQLVESGGGLVQAGGSLRLSCAASGFIFQTNVMGWYRQAPGKERELVAAISSGDSTYYADSVKGRFTISRDNAKNTVYLQLNSLKPEDTAVYYCAADVLGTTTTVGGFNYWGQGTQVTVSS	low polyreactivity
QVQLVESGGGLVQAGGSLRLSCAASGFTFTYNAMGWYRQAPGKERELVAGISWRGGTTYYADSVKGRFTISRDNAKNTVYLQMNSLKPEDTAVYYCAARNYYRGSGWPSNRGYYWGQGTQVTVSS	high polyreactivity
QVQLVDSGGGLVQAGGSLRLSCAASGSTFDRNGMGWYRQAPGKERELVAAITRGGSTYYADSVKGRFTISRDNAKNTVYLQMNSLKPEDTAVYYCAKRYRGGYYYPYNYWGQGTQVTVSS	high polyreactivity
QVQLVESGGGLVQAGGSLRLSCAASGSTFSIYAMGWSRQAPGKERELVAAITGTVGSTYYADSVKGRFTISRDNAKNTVYLQMNSLNPEDTAVYYCAARQVNYDYDYWGQGTQVTVSS	low polyreactivity
QVQLVESGGGLVQAGGSLRLSCAAYGSIFSENAMGWYRQAPGKEWELVADITDGGGSTYYADSVKGRFTISRDNAKNPVYLQMNSLKPDDTAVYYCNAQIFFFAPWYYEYDYWGQCTQVTVSS	low polyreactivity
QVQLVETGGGLVQAGGSLRLSCAASGITFPYYAMGWYRQAPGKERELVDAITIRSGRTYYADSVKGRFTISRDNAKNTFYLQMNSLIPEDTAVYYCAARLSNTYGYWGQGTQVTVSS	high polyreactivity
QVQLVESGGGLGQAGGSLRLSCAASGFILRYNAMGWYRQAPGKERELVAAISYTGDRTYYADSVKGRFTISRDNAKNTVYLQMNSLKPEDTAVYYCKAGKGQRALVRIGSKLMYYWGHGTQVTVSS	high polyreactivity
QVQLVESGGGLVQAGGSLRLSCAASGFTFTTNAMGWYRQAPGKERELVAAISKRGTRTYYADSVKGRFTISRDNAKNTVYLQMNSLKPEDTAVYYCAAASVAGDKFDYWGQGSQVTVSS	high polyreactivity
QVQHVESGGGLVQAGGSLRLSCAASGSTFWNKAMGWYRQAPGKEREFVAAITRSTTSTYYADSVKGRFTISRDNAKNTVYLQMNSLKPEDTAVYFCAADTDIVLYDYWGQGTQVTVSS	low polyreactivity

From the nanobody polyreactivity screen of Harvey et al. (2022)
